Source: patent US20240084044A1, “Heteromultivalent Nucleic Acid Scaffolds and Uses Thereof” (George Mason University, priority 2022, published 2024)
Several values for one entry are separate records, joined by “and”; a condition that tells them apart may be missing. Equal entries are not always repeated. Bridges are numbered along the chain shown (N, C = ends). Roman numbers before positions name the chains, in order.

Target: T1, ST2/IL-33 binary complex (Homo sapiens, UniProt O95760+Q01638)
T1 construct: included the extracellular domains, K19-F328 and S21-E359, respectively; the cleaved mature proteins, S112-T270, A117-S269, and R2-S310, respectively; purchased Sino Biologicals ST2 10105-HCCH; IL-33 10368-HNAE; host or cells: ST2: HEK293; IL-33: E. coli
T1 sequence (Q01638 19-328 isoform Q01638-2): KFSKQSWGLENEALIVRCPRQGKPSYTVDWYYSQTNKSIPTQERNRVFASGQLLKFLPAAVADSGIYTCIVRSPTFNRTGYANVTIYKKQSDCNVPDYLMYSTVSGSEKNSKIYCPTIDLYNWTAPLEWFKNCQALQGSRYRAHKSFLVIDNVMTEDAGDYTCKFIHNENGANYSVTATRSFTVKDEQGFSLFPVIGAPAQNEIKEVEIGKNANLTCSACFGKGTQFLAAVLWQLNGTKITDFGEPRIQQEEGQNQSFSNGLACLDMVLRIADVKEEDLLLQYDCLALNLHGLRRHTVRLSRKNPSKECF
T1 sequence (O95760 112-270): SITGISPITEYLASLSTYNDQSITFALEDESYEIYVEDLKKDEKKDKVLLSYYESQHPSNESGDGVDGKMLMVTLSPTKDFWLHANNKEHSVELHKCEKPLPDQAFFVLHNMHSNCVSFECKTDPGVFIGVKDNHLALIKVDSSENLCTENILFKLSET
Assay: SPR dissociation constant for the ST2/IL-33 binary complex
Assay type: binding
Excerpt: Recombinant ST2 with truncated FLAG (DDDDK) tag (Cat. #10105-HCCH), His-tagged IL1RAcP (Cat. #10121-H08H), IL-33 (Cat. #10368-HNAE), IL-1β (Cat. #10139-HNAE), and FLAG-tagged SIRT5 (Cat. #19202-H22E) were purchased from Sino Biologicals (Wayne, PA). ST2 and IL1RAcP were expressed in HEK293 cells and included the extracellular domains, K19-F328 and S21-E359, respectively. IL-33, IL-1β, and SIRT5 were expressed in E. coli and included the residue sequence of the cleaved mature proteins, S112-T270, A117-S269, and R2-S310, respectively. Lyophilized ST2, and IL1RAcP were reconstituted in ultrapure (18.5 MΩ) water to a concentration of 0.5 mg/mL (5.6 μM) and stored at −80° C. until use. SIRT5 was reconstituted to 0.2 mg/mL (2.87 μM). To prevent oxidation, IL-33 was reconstituted in 10 mM β-mercaptoethanol (Sigma-Aldrich) to a concentration of 0.1 mg/mL and IL-1β was reconstituted to 0.250 mg/mL. All peptides were purchased from Peptide 2.0 (Chantilly, VA) and designed based on IL1RAcP hotspot residues known to interact with IL-33/ST2 and surrounding residues based on the canonical sequence of IL1RAcP (Uniprot #Q9NPH3). All peptides were modified with acetylated N-terms and amidated C-terms to optimize stability and cyclic peptides cyclized via thioether or disulfide bond. Candidate peptides for the final molecule were also modified with an azido-Lysine and additional N-term alanine or cysteine, to provide the azide group for copper free click chemistry and maintain cyclization. Peptides were stored at −20° C. in lyophilized aliquots of 100 μg or 200 μg and −80° C. after reconstitution in sterile DMSO to a concentration of 10 mM.
SPR experiments were carried out on an OpenSPR instrument (Nicoya). Gold nanoparticle sensor chips (Nicoya) were functionalized by incubation in a solution of ethanol and 10 mM 11-Mercaptoundecanoic acid (MUDA) at RT for a minimum of 48 h, then stored in ethanol at 4° C. until use. Chips were activated with a solution of 200 mM EDC and 50 mM NHS for 3 m at RT. […] Data was analyzed with TraceDrawer software to a 1:1 fit model.

## MSTOP: 3WJ DNA scaffold whose three DBCO staple strands carry cyclized azidolysine IL-1RAcP hotspot peptides; decoy for IL-33/ST2 (peptide 1 Ac-CKEYGIQRITC-NH2; peptide 2 Ac-AKVGSPKNAVPPC-NH2; peptide 3 Ac-CKGEVAKAAKVKC-NH2; disulfide I:1-I:11, III:1-III:13; thioether II:1-II:13; not fully specified (some residues); also: three peptides held on a 3-way junction DNA scaffold via DBCO staple strands)
SPR KD comparison
  increase in affinity compared to the individual peptides and IL-1RAcP: ~100 fold and 100 fold
SPR, 1:1 fit, read-out: KD (affinity) to the binary ST2/IL-33 complex
  Kd: 195 nM and < 200 nM
